Target: the molecule itself
Experiment: SEC; HiLoad 16/60 Superdex 200 pg, 25 mM Tris-HCl pH 7.5, 500 mM NaCl, 4 °C, 1 mL/min; mass estimated from the elution volume

B1: Synechococcus sp. PCC 7002 CrtE (geranylgeranyl pyrophosphate synthase) (enzyme, UniProt B1XJV9 1-302, looked up)
chain: MVVADAHTQGFSLAQYLQEQKTIVETALDQSLVITEPVTIYEAMRYSLLAGGKRLRPILCLAACEMLGGTAAMAMNTACALEMIHTMSLIHDDLPAMDNDDLRRGKPTNHKVYGEDIAILAGDALLSYAFEYVARTPDVPAERLLQVIVRLGQAVGAEGLVGGQVVDLESEGKTDVAVETLNFIHTHKTGALLEVCVTAGAILAGAKPEEVQLLSRYAQNIGLAFQIVDDILDITATAEELGKTAGKDLEAQKVTYPSLWGIEKSQAEAQKLVAEAIASLEPYGEKANPLKALAEYIVNRKN
notes: CrtE (type II geranylgeranyl pyrophosphate synthase) of Synechococcus sp; PCC 7002, gene crtE, locus SYNPCC7002_A1085; amplified from genomic DNA with primers from the ATG to the stop codon; predicted 302 residues; Expressed from pHUE as an N-terminal His-tagged ubiquitin fusion and freed by deubiquitinase; also called Syn7002 CrtE; Syn7002 GGPPS; source: E. coli BL21(DE3), purified (Ni-NTA, …)
  stoichiometry N: 2

From PMC7261888, “Crystal Structure of Geranylgeranyl Pyrophosphate Synthase (CrtE) Involved in Cyanobacterial Terpenoid Biosynthesis” (Frontiers in Plant Science, 2020)
